From patent publication US20020142982A1 (published 2002) come the findings set out here.

The target in the test is T1, beta-catenin (endogenous, HUVEC) (human (HUVEC), UniProt P35222 2-781).
T1 construct: also called β-catenin
T1 sequence (looked up): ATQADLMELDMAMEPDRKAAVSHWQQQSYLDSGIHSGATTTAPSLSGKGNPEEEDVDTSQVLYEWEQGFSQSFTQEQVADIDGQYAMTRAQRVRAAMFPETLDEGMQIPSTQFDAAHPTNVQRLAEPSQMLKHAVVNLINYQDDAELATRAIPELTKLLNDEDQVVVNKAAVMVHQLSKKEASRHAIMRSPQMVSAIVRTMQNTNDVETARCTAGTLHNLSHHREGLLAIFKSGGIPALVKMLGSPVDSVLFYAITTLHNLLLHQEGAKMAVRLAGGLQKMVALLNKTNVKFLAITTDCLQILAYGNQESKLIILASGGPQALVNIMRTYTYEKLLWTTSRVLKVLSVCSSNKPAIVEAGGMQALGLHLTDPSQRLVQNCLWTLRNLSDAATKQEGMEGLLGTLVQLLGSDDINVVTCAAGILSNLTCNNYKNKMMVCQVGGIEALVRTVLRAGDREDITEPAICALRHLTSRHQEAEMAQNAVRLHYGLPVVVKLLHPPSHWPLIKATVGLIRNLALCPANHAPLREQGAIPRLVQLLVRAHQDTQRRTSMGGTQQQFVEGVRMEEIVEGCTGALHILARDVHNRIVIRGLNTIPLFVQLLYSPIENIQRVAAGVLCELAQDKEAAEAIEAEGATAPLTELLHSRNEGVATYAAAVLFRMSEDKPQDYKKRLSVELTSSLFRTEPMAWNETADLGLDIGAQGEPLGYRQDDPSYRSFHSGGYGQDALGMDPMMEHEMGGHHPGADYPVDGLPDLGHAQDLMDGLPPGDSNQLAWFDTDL
The experiment in a line: co-immunoprecipitation of 35S-labelled, DSP cross-linked detergent-insoluble HUVEC extracts. How it is done:
HUVEC were labeled to steady state with ^35Smethionine (250 μCi/mL, NEN DuPont) for 24 hours. After stimulation with 500 nM SPP for 1 hour, cells were fractionated with 0.5% TX-100. After centrifugation (15,000 g, 15 minutes), the protein complexes in detergent-insoluble fractions were cross-linked with 0.5 mM Dithiobis[succinimidyl propionate] (DSP; Pierce Chemical Co., Rockford, Ill.) (Hinck, L., J. Cell Biol. 125: 1327-1340 (1994)), and extracted with 1% TX-100-1% SDS as described above. Cell extracts were then immunoprecipitated with antibodies to VE cadherin, β-catenin, γ-catenin, or p120 Src (p120^cas, Transduction Laboratories). The immunoprecipitated complexes were then reduced by incubating in sample buffer containing 2% β-mercaptoethanol at 95° C. for 10 minutes, 10 μL dithiothreitol (1 M) was added to each gel lanes before protein separation by SDS-PAGE.

B1: gamma-catenin (endogenous, HUVEC) (other, human (HUVEC), UniProt P14923 1-745, looked up)
chain: MEVMNLMEQPIKVTEWQQTYTYDSGIHSGANTCVPSVSSKGIMEEDEACGRQYTLKKTTTYTQGVPPSQGDLEYQMSTTARAKRVREAMCPGVSGEDSSLLLATQVEGQATNLQRLAEPSQLLKSAIVHLINYQDDAELATRALPELTKLLNDEDPVVVTKAAMIVNQLSKKEASRRALMGSPQLVAAVVRTMQNTSDLDTARCTTSILHNLSHHREGLLAIFKSGGIPALVRMLSSPVESVLFYAITTLHNLLLYQEGAKMAVRLADGLQKMVPLLNKNNPKFLAITTDCLQLLAYGNQESKLIILANGGPQALVQIMRNYSYEKLLWTTSRVLKVLSVCPSNKPAIVEAGGMQALGKHLTSNSPRLVQNCLWTLRNLSDVATKQEGLESVLKILVNQLSVDDVNVLTCATGTLSNLTCNNSKNKTLVTQNSGVEALIHAILRAGDKDDITEPAVCALRHLTSRHPEAEMAQNSVRLNYGIPAIVKLLNQPNQWPLVKATIGLIRNLALCPANHAPLQEAAVIPRLVQLLVKAHQDAQRHVAAGTQQPYTDGVRMEEIVEGCTGALHILARDPMNRMEIFRLNTIPLFVQLLYSSVENIQRVAAGVLCELAQDKEAADAIDAEGASAPLMELLHSRNEGTATYAAAVLFRISEDKNPDYRKRVSVELTNSLFKHDPAAWEAAQSMIPINEPYGDDMDATYRPMYSSDVPLDPLEMHMDMDGDYPIDTYSDGLRPPYPTADHMLA
notes: also called γ-catenin
Turning to B1, the binding result is reported as “no binding”.
